Measured values taken from patent publication US20250122266A1 (TEXAS A AND M UNIVERSITY SYSTEM, published 2025).

Columns and labels:
[1] = target: mCh tethered to early endosome [EE]; assay: cytosol-to-early-endosome translocation in HeLa cells under light
[2] = target: T1, plasma membrane targeting mCh (mCh-CAAX); assay: cytosol-to-plasma-membrane translocation in HeLa cells under light
T1 construct: also called mCh tethered to PM

NE-tethered mCh-lamin A [3] = target: T2, NE-tethered mCh-lamin A (UniProt P02545 1-664); assay: NE/NP ratio of GFP signal in HeLa cells, before and after light
T2 sequence (P02545 whole entry): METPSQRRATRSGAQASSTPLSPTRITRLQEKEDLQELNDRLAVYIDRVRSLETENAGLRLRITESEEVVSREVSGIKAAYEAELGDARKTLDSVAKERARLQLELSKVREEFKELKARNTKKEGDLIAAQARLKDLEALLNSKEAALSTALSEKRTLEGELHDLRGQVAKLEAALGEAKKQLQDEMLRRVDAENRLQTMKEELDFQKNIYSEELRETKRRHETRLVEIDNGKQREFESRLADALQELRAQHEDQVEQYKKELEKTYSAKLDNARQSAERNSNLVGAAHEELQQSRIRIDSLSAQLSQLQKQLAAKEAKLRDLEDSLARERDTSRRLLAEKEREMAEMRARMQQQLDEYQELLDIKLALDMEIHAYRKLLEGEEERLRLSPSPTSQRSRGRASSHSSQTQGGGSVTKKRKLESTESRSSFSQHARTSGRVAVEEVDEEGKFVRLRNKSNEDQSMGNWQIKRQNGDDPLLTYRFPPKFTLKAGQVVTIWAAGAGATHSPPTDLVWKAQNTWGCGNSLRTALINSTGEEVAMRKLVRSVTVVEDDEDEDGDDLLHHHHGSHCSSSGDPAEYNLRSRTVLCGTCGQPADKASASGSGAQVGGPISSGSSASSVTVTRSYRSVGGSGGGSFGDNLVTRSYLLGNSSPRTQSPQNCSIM

NE-tethered mCh-lamin A [4] = target: T2, NE-tethered mCh-lamin A; assay: nucleoplasmic GFP signal in HeLa cells over dark-light cycles

Binder	fold increase in the signal-to-background ratio against 1x sunbody [1] [fold]	fold increase in the signal-to-background ratio against 1x sunbody [2] [fold]	light-induced change in the NE/NP ratio (NE-tethered mCh-lamin A [3]) [%]	half-life of light-triggered translocation to the antigen (t½, on) (NE-tethered mCh-lamin A [4]) [s]
GFP-2xsunbody (dimeric concatemer of sunbody) (VHH, not shown: large carriers, also called tandem sunbody) LATTLERIEKNFVITDPRLPDNPIIFASDSFLQLTEYSREEILGRNCRFLQGPETDRATVRKIRDAIDNQTEVTVQLINYTKSGKKFWNLFHLQPMRDQKGDVQYFIGVQLDGTEHVRDAAEREGVMLIKKTAENIDEAAKELKLMAQVQLVESGGGLVQAGGSLRLSCAVSGRPFSEYNLGWFRQAPGKEREFVARIRSSGTTVYTDSVKGRFSASRDNALERIEKNFVITDPRLPDNPIIFASDSFLQLTEYSREEILGRNCRFLQGPETDRATVRKIRDAIDNQTEVTVQLINYTKSGKKFWNLFHLQPMRDQKGDVQYFIGVQLDGTEHVRDAAEREGVMLIKKTAENIDEAAKNMGYLQLNSLEPEDTAVYYCAMSRVDTDSPAFYDYWGQGTQVTVSTPRSLATTLERIEKNFVITDPRLPDNPIIFASDSFLQLTEYSREEILGRNCRFLQGPETDRATVRKIRDAIDNQTEVTVQLINYTKSGKKFWNLFHLQPMRDQKGDVQYFIGVQLDGTEHVRDAAEREGVMLIKKTAENIDEAAKELKLMAQVQLVESGGGLVQAGGSLRLSCAVSGRPFSEYNLGWFRQAPGKEREFVARIRSSGTTVYTDSVKGRFSASRDNALERIEKNFVITDPRLPDNPIIFASDSFLQLTEYSREEILGRNCRFLQGPETDRATVRKIRDAIDNQTEVTVQLINYTKSGKKFWNLFHLQPMRDQKGDVQYFIGVQLDGTEHVRDAAEREGVMLIKKTAENIDEAAKNMGYLQLNSLEPEDTAVYYCAMSRVDTDSPAFYDYWGQGTQVTVSTPRS	> 2	> 2	–	–
GFP-sunbody (anti-mCherry nanobody LaM8 with LOV2 at S0 and S3) (VHH, not shown: large carriers, also called S0+S3; anti-mCh GFP-tagged sunbody) LATTLERIEKNFVITDPRLPDNPIIFASDSFLQLTEYSREEILGRNCRFLQGPETDRATVRKIRDAIDNQTEVTVQLINYTKSGKKFWNLFHLQPMRDQKGDVQYFIGVQLDGTEHVRDAAEREGVMLIKKTAENIDEAAKELKLMAQVQLVESGGGLVQAGGSLRLSCAVSGRPFSEYNLGWFRQAPGKEREFVARIRSSGTTVYTDSVKGRFSASRDNALERIEKNFVITDPRLPDNPIIFASDSFLQLTEYSREEILGRNCRFLQGPETDRATVRKIRDAIDNQTEVTVQLINYTKSGKKFWNLFHLQPMRDQKGDVQYFIGVQLDGTEHVRDAAEREGVMLIKKTAENIDEAAKNMGYLQLNSLEPEDTAVYYCAMSRVDTDSPAFYDYWGQGTQVTVSTPRS	–	–	> 80	2.6
